Data published in patent US20260207704A1, “STAPLED PEPTIDES AND METHODS THEREOF” (priority 2022, published 2026).
*1 amine or outer side, *2 acyl side, *3 side chain or, on linkers, in order; H or OH if unused. Bridges are numbered along the chain shown (N, C = ends). Primed or numbered codes have the meaning given here. [ ]: non-standard residue; d: D form. PyrS2(6) = (S)-3-amino-1-((pent-4-en-1-yloxy)carbonyl)pyrrolidine-3-carboxylic acid, stapled with another olefin-containing amino acid residue through the olefin group, O=C(OCCCC=[*:3])N1CC[C@@](N[*:1])(C(=O)[*:2])C1; B5(4) = 2-amino-2-(pent-4-en-1-yl)hept-6-enoic acid, stapled through each of its two olefin groups with other olefin-containing amino acid residues, O=C(C(CCCC=[*:3])(CCCC=[*:4])N[*:1])[*:2]; PyrS2″ = (S)-3-amino-1-((pent-4-en-1-yloxy)carbonyl)pyrrolidine-3-carboxylic acid (olefin stapling residue), C=CCCCOC(=O)N1CC[C@@](N[*:1])(C(=O)[*:2])C1; PyrS2(3) = (S)-3-amino-1-((pent-4-en-1-yloxy)carbonyl)pyrrolidine-3-carboxylic acid, olefin residue, C=CCCCOC(=O)N1CC[C@@](N[*:1])(C(=O)[*:2])C1; B5(3) = 2-amino-2-(pent-4-en-1-yl)hept-6-enoic acid, two olefin arms, C=CCCCC(CCCC=C)(N[*:1])C(=O)[*:2]; Phe(3-COOH) = N[C@@H](Cc1cccc(C(=O)O)c1)C(=O)O; 2F3MeF = Cc1cccc(C[C@H](N[*:1])C(=O)[*:2])c1F; Phe(2-Cl) = N[C@@H](Cc1ccccc1Cl)C(=O)O; Bta = N[C@@H](Cc1csc2ccccc12)C(=O)O; αAllylPro = C=CC[C@@]1(C(=O)O)CCCN1; BztA = aromatic amino acid residue; tBuAla = CC(C)(C)C[C@H](N)C(=O)O; Biphen33COOH = not defined here; 3Thi = N[C@@H](Cc1ccsc1)C(=O)O; Cha = N[C@@H](CC1CCCCC1)C(=O)O; PyrS2(4) = not defined here; hSer = N[C@@H](CCO)C(=O)O; TfeGA = not defined here; GlnR = not defined here; PL3 = not defined here; B5 = not defined here

B1: I-50 (peptide)
peptide: Ac-[αAllylPro]D[tBuAla][B5(4)]D[Phe(3-COOH)]K(isophthalate)AFL[PyrS2(6)][Phe(2-Cl)][Bta]K-NH2
modifications: not fully specified (residue 6, bridges); printed as Ac-PL3-Asp-Npg-B5-Asp-3COOHF-[isophthalate]-Lys-Ala-Phe-Leu-PyrS2-2ClF-BztA-Lys-NH2; also: isophthalate on Lys7 side chain is a staple, partner not given here
B2: I-54 (peptide)
peptide: Ac-[αAllylPro]D[tBuAla][B5(3)]D[Phe(3-COOH)]K(Biphen33COOH)AFL[PyrS2(3)][Phe(2-Cl)][Bta]K-NH2
modifications: not fully specified (residue 6, bridges); printed as Ac-PL3-Asp-Npg-B5-Asp-3COOHF-[Biphen33COOH]Lys-Ala-Phe-Leu-PyrS2-2ClF-BztA-Lys-NH2; reading uncertain
B3: I-111 (peptide)
peptide: Ac-[PL3]D[tBuAla][B5]D[Phe(3-COOH)][Cha]AFK[PyrS2(4)][2F3MeF][Bta][GlnR]L-NH2
modifications: staple 1-4; bridge 10-14; reading uncertain; also: PyrS2 tied into a staple, partner not placed, printed as Ac-PL3-Asp-Npg-B5-Asp-3COOHF-Cha-Ala-Phe-Lys*3-PyrS2-2F3MeF-BztA-GlnR*3-Leu-NH2
B4: I-114 (peptide)
peptide: Ac-[PL3]N[tBuAla][B5]D[TfeGA]AAFK[PyrS2(4)][2F3MeF][Bta][GlnR]A-NH2
modifications: staple 1-4; bridge 10-14; reading uncertain; also: PyrS2 tied into a staple, partner not placed
B5: I-53 (peptide)
peptide: Ac-[αAllylPro]D[tBuAla][B5(3)]D[Phe(3-COOH)]K(diphenate)AFL[PyrS2(3)][Phe(2-Cl)][Bta]K-NH2
modifications: not fully specified (residue 6, bridges); printed as Ac-PL3-Asp-Npg-B5-Asp-3COOHF-[diphenate]Lys-Ala-Phe-Leu-PyrS2-2ClF-BztA-Lys-NH2
B6: I-85 (peptide)
peptide: Ac-[PL3][hSer][tBuAla][B5]D[Phe(3-COOH)]SAFK[PyrS2″][3Thi][BztA][GlnR]A-NH2
modifications: staple 1-4 (inferred); bridge 10-14; not fully specified (residue 10, bridges); printed as Ac-PL3-Hse-Npg-B5-Asp-3COOHF-Ser-Ala-Phe-Lys*3-PyrS2-3Thi-BztA-GlnR*3-Ala-NH2; reading uncertain; also: Lys10 and GlnR14 marked *3
B7: I-49 (peptide)
peptide: Ac-[αAllylPro]D[tBuAla][B5(4)]D[Phe(3-COOH)]KAFL[PyrS2(6)][3Thi][Bta]K-NH2
modifications: not fully specified (residues 6, 7, bridges); printed as Ac-PL3-Asp-Npg-B5-Asp-3COOHF-[Biphen33COOH]-Lys-Ala-Phe-Leu-PyrS2-3Thi-BztA-Lys-NH2
B8: I-81 (peptide)
peptide: Ac-[PL3][hSer][tBuAla][B5]D[Phe(3-COOH)]AAFK[PyrS2″][3Thi][BztA][GlnR]A-NH2
modifications: staple 1-4 (inferred); bridge 10-14; not fully specified (residue 10, bridges); printed as Ac-PL3-Hse-Npg-B5-Asp-3COOHF-Ala-Ala-Phe-Lys*3-PyrS2-3Thi-BztA-GlnR*3-Ala-NH2; reading uncertain

target: beta-catenin (human); assay: fluorescence polarization; bin >50 nM
Sequence (B6V8E6 146-665 limits assumed): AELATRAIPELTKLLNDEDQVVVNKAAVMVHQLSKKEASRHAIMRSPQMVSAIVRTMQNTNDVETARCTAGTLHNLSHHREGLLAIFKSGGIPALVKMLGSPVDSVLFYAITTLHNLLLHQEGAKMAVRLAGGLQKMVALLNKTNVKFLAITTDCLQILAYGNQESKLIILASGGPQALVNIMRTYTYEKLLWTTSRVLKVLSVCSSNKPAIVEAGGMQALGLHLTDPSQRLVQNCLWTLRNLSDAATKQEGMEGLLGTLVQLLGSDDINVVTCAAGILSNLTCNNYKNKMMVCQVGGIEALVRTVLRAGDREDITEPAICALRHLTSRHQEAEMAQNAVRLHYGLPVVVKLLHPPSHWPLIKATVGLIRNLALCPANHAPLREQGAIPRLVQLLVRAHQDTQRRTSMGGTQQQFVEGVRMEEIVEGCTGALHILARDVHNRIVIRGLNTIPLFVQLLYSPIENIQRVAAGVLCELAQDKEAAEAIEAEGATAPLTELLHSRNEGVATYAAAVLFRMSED

Binder	IC50 [nM]
B1	< 200
B2	< 200
B3	< 200
B4	< 200
B5	< 200
B6	< 200
B7	< 200
B8	< 200
